{
  "source": "patent US20020053098",
  "key": {"[1]": {"target": "herbicide-resistant mutant (Met124His) Arabidopsis AHAS large subunit protein (UniProt P17597)"}, "[2]": {"target": "wild type Arabidopsis AHAS large subunit protein (pAC774) (UniProt P17597)"}},
  "data": [
    {"substance": "Arabidopsis AHAS small subunit protein expressed from plasmid F1", "values": [
      {"measurement": "AHAS enzymatic activity of the mutant large subunit in vitro, in the presence of small subunit", "setting": "[1]", "value": "the enzymatic activity of a herbicide-resistant form of the large subunit is also enhanced"},
      {"measurement": "AHAS enzymatic activity of the large subunit in vitro, with increasing amounts of small subunit", "setting": "[2]", "value": "small subunit protein enhances the level of enzymatic activity of the catalytic large subunit"}
    ]}
  ]
}
